Experimental data as given in patent publication US7033590 (BAXTER AKTIENGESELLSCHAFT, dated 2006).
Non-standard residues stand in square brackets, D forms with d. No end group written: not given here.

B1: peptide A1/3 (peptide)
peptide: RRREGGGYYVNWYFDRRR
B2: peptide A1/3-Rd (peptide)
peptide: [dR][dR][dR]EGGGYYVNWYFD[dR][dR][dR]
B3: peptide A1/3-Rd-srmb (peptide)
peptide: [dR][dR][dR]GEYGVYWNGDFY[dR][dR][dR]
B4: monoclonal antibody 198/B1 (antibody, V domains shown)
VH: EVQLQESGGGLVKPGGSLKLSCAASGFTFSSYTMSWVRQTPEKRLEWVATISSGGSSTYYPDSVKGRFTISRDNAKNTLYLQMSSLRSEDTAMYYCTREGGGFTVNWYFDVWGAGTLVTVSA
VL: ENVLTQSPASLAVSLGQRATISCRASESVDSYGYNFMHWYQQIPGQPPKLLIYRASNLESGIPARFSGSGSRTDFTLTINPVEADDVATYYCQQSNEDPLTFGTGTRLEIKR
B5: irrelevant monoclonal antibody #8860 (antibody, V domains shown)
VH: EVQLQQSGPELVKPGASVKISCKASGYAFSSSWMNWVKQRPGQGLEWIGRIYPGNGDTNYNGKFKGKATLTADKSSSTAYMQLSSLTSVDSAVYFCADGNVYYYAMDYWGQGTSVTVSS
VL: QIVLTQSPASLAVSLGQRATISCRASKSVSTSGYSYMHWYQQKPGQPPKLLIYLASNLESGVPARFSGSGSGTDFTLNIHPVEEEDAATYYCQHSRELPRTFGGGTKLEIKR
notes: Tested as the monoclonal antibody

Assays:
[1] = target: T1, human activated factor IX (human FIXa) (human, UniProt P00740 47-191; P00740 227-461); test: cell-based or functional assay
[2] = target: T1, human activated factor IX (human FIXa); test: cell-based or functional assay; remark: listed apart in the source
[3] = target: T1, human activated factor IX (human FIXa); test: cell-based or functional assay; remark: listed apart in the source
[4] = target: T2, human coagulation factor (F) IX (human, UniProt P00740 47-461); test: Western blot and ELISA
T2 construct: also called Factor IX; factor IX
T2 sequence (P00740 47-461 limits assumed): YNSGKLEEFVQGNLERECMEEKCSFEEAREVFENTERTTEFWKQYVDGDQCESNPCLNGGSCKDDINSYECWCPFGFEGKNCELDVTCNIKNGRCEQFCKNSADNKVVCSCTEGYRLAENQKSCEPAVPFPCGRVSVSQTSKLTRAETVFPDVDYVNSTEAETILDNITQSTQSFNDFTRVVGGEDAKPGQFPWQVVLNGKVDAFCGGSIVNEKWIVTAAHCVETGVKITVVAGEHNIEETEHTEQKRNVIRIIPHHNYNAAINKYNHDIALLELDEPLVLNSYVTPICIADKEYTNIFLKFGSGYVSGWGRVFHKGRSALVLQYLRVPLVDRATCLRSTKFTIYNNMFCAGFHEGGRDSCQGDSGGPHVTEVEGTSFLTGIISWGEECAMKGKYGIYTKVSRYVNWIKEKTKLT

clotting time, aPTT one-stage assay (Table 4), 2.2 nM FIXa, peptide 1.25 µM, average (IZ buffer 96) [2] [s] | clotting time, aPTT one-stage assay (Table 4), 2.2 nM FIXa, peptide 1.25 µM, duplicate 1 (IZ buffer 96) [2] [s] | clotting time, aPTT one-stage assay (Table 4), 2.2 nM FIXa, peptide 1.25 µM, duplicate 2 (IZ buffer 96) [2] [s] | clotting time, aPTT one-stage assay (Table 4), 2.2 nM FIXa, peptide 2.5 µM, average (IZ buffer 96) [2] [s] | clotting time, aPTT one-stage assay (Table 4), 2.2 nM FIXa, peptide 2.5 µM, duplicate 1 (IZ buffer 96) [2] [s] | clotting time, aPTT one-stage assay (Table 4), 2.2 nM FIXa, peptide 2.5 µM, duplicate 2 (IZ buffer 96) [2] [s] | clotting time, aPTT one-stage assay (Table 4), 2.2 nM FIXa, peptide 5 µM, average (IZ buffer 96) [2] [s] | clotting time, aPTT one-stage assay (Table 4), 2.2 nM FIXa, peptide 5 µM, duplicate 1 (IZ buffer 96) [2] [s] | clotting time, aPTT one-stage assay (Table 4), 2.2 nM FIXa, peptide 5 µM, duplicate 2 (IZ buffer 96) [2] [s] | clotting time, aPTT one-stage assay (Table 4), 2.2 nM FIXa, peptide 7.5 µM, average (IZ buffer 96) [2] [s] | clotting time, aPTT one-stage assay (Table 4), 2.2 nM FIXa, peptide 7.5 µM, duplicate 1 (IZ buffer 96) [2] [s] | clotting time, aPTT one-stage assay (Table 4), 2.2 nM FIXa, peptide 7.5 µM, duplicate 2 (IZ buffer 96) [2] [s] | clotting time, aPTT one-stage assay (Table 4), 2.2 nM FIXa, peptide 10 µM, average (IZ buffer 96) [2] [s] | clotting time, aPTT one-stage assay (Table 4), 2.2 nM FIXa, peptide 10 µM, duplicate 1 (IZ buffer 96) [2] [s] | clotting time, aPTT one-stage assay (Table 4), 2.2 nM FIXa, peptide 10 µM, duplicate 2 (IZ buffer 96) [2] [s] | clotting time, aPTT one-stage assay (Table 4), 2.2 nM FIXa, peptide 12.5 µM, average (IZ buffer 96) [2] [s] | clotting time, aPTT one-stage assay (Table 4), 2.2 nM FIXa, peptide 12.5 µM, duplicate 1 (IZ buffer 96) [2] [s] | clotting time, aPTT one-stage assay (Table 4), 2.2 nM FIXa, peptide 12.5 µM, duplicate 2 (IZ buffer 96) [2] [s] | clotting time, aPTT one-stage assay (Table 4), 2.2 nM FIXa, peptide 15 µM, average (IZ buffer 96) [2] [s] | clotting time, aPTT one-stage assay (Table 4), 2.2 nM FIXa, peptide 15 µM, duplicate 1 (IZ buffer 96) [2] [s] | further results | Molecule
 |  |  |  |  |  |  |  |  |  |  |  |  |  |  |  |  |  |  |  | clotting time, aPTT one-stage (Pathromtin SL), FVIII deficient plasma, 2.2 nM human FIXa, FVIII 6.25 mU/ml, average (IZ buffer 108) [1]: 59 s; clotting time, aPTT one-stage (Pathromtin SL), FVIII deficient plasma, 2.2 nM human FIXa, FVIII 6.25 mU/ml, duplicate 1 (IZ buffer 107.9) [1]: 58.6 s; clotting time, aPTT one-stage (Pathromtin SL), FVIII deficient plasma, 2.2 nM human FIXa, FVIII 6.25 mU/ml, duplicate 2 (IZ buffer 108.7) [1]: 58.9 s; clotting time, aPTT one-stage (Pathromtin SL), FVIII deficient plasma, 2.2 nM human FIXa, FVIII 12.5 mU/ml, average (IZ buffer 108) [1]: 53 s; clotting time, aPTT one-stage (Pathromtin SL), FVIII deficient plasma, 2.2 nM human FIXa, FVIII 12.5 mU/ml, duplicate 1 (IZ buffer 107.9) [1]: 52.9 s; clotting time, aPTT one-stage (Pathromtin SL), FVIII deficient plasma, 2.2 nM human FIXa, FVIII 12.5 mU/ml, duplicate 2 (IZ buffer 108.7) [1]: 53.6 s | Factor VIII (from UniProt P00451 20-2351)
 |  |  |  |  |  |  |  |  |  |  |  |  |  |  |  |  |  |  |  | clotting time, aPTT one-stage assay, FVIII deficient plasma, 50 ng FIXa, 0.23 µg antibody [1]: 104 s; clotting time, aPTT one-stage assay, FVIII deficient plasma, 50 ng FIXa, 0.34 µg antibody [1]: 104 s; clotting time, aPTT one-stage assay, FVIII deficient plasma, 50 ng FIXa, 0.45 µg antibody [1]: 102 s; clotting time, aPTT one-stage assay, FVIII deficient plasma, 50 ng FIXa, 0.9 µg antibody [1]: 102 s; clotting time, aPTT one-stage assay, FVIII deficient plasma, 50 ng FIXa, 1.35 µg antibody [1]: 103 s; clotting time, aPTT one-stage assay, FVIII deficient plasma, 50 ng FIXa, 1.8 µg antibody [1]: 102 s; clotting time, aPTT one-stage assay, FVIII deficient plasma, 50 ng FIXa, 2.25 µg antibody [1]: 103 s; clotting time, aPTT one-stage assay, FVIII deficient plasma, 50 ng FIXa, 4.5 µg antibody [1]: 103 s; clotting time, aPTT one-stage assay, FVIII deficient plasma, 50 ng FIXa, 9 µg antibody [1]: 102 s | unspecific mouse IgG (antibody)
95 | 94.4 | 95 | 93 | 93.6 | 93.3 | 89 | 89.7 | 88.3 | 81 | 80.7 | 80.5 | 73 | 72 | 73.2 | 67 | 65 | 68 | 56 | 56.1 | clotting time, aPTT one-stage assay (Table 4), 2.2 nM FIXa, peptide 15 µM, duplicate 2 (IZ buffer 96) [2]: 55.5 s | B1
96 | 96.6 | 96 | 95 | 94.4 | 94.7 | 86 | 86 | 85.1 | 82 | 80.9 | 82.2 | 76 | 74.2 | 77.2 | 73 | 72.3 | 73.7 | 75 | 76.1 | clotting time, aPTT one-stage assay (Table 4), 2.2 nM FIXa, peptide 15 µM, duplicate 2 (IZ buffer 96) [2]: 74.4 s | B2
103 | 101 | 105 | 105 | 105 | 104 | 108 | 108 | 108 | 107 | 108 | 107 | 108 | 107 | 108 | 108 | 108 | 108 | 113 | 113 | clotting time, aPTT one-stage assay (Table 4), 2.2 nM FIXa, peptide 15 µM, duplicate 2 (IZ buffer 96) [2]: 112 s | B3
 |  |  |  |  |  |  |  |  |  |  |  |  |  |  |  |  |  |  |  | amidolytic activity of FIXa (cleavage of CH3SO2-D-CHG-Gly-Arg-pNA, OD405), 20 mU FIXa (Stago), various amounts of antibody [3]: ≥ 2 fold | B4
 |  |  |  |  |  |  |  |  |  |  |  |  |  |  |  |  |  |  |  | binding result [4]: no binding | B5
